Measurements from the nanobody polyreactivity screen of Harvey et al. (2022).

assay: yeast display, Sf9 membrane polyspecificity reagent, FACS + sequencing; frameworks hold sequencing errors
In short: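 Nanobodies came from a synthetic yeast display library in Saccharomyces cerevisiae BJ5465, induced with galactose for 36–48 hours and stained for 1 hour at 4 °C with 10% biotinylated, detergent-solubilized Sf9 membrane reagent. Cells were enriched on streptavidin microbeads and then FACS-sorted, with low and high (top ~1%) gates set on anti-HA fluorescence for expression and streptavidin fluorescence for reagent binding. Each polyreactivity label reflects the gate a clone came from. Genes were amplified by colony PCR, sequenced by MiSeq 2 × 250 and filtered by CDR length.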

| Sequence | polyreactivity (PSR sort gate) |
| --- | --- |
| QVQLVESGGGLVQAGGSLRLSSAASGIIFDYNAMGWYRQAPGKERELVAAISYSGDSTYYADSVKGRFTISRDNAKNTVYLQMNSLKPEDTAVYYCAAVIYFGWWYVYTEDDYWGQGTQVTVSS | high polyreactivity |
| QVQLVESGGGLVQAGGSLRLSSAASGIIFFFYAMGWYRQAPGKERELVAVITGSGDSTFYADSVKGRFTISRDNAKNTVYLQMNSLKPEDTAVYYCNARQVSGGYYYWGQGTQVTVSS | low polyreactivity |
| QVQLVESGGGLVQAGGSLRLSSAASGIIFTYYAMGWYRQAPGKERELVAAISSGGGSTYYADSVKGRFTISRDNAKNTVYLQMNSLKPEDTAVYYCNADYYFVYTYLHDYWGQGTQVTVSS | low polyreactivity |
| QVQLVESGGGLVQAGGSLRLSSAASGITFIRYAMGWYSQAPGKERELVAAISSGGSTNYADSVKGRFTISRDNAKNTVYLQMNSLKPEDTAVYYCAARYYWSFAYDYWGQGTQVTVSS | low polyreactivity |
| QVQLVESGGGLVQAGGSLRLSSAASGITLTANAMGCYRQAPGKERELVAAISRGGSTYYADSVKGRFTISRDNAKNTVYLQMNSLKPEDTAVYYCNKAGGYWYAKRDYDYWGQCTQVTVSS | high polyreactivity |
| QVQLVESGGGLVQAGGSLRLSSAASGLIFWFYAMGWYRQAPGKERELVAAIDTDGGSTYYADSVKGRFTISRDNAKNTVYLQMNSLKPEDTAVYYCAATFAAYTQQTFYYWGQGTQVTVSS | low polyreactivity |
| QVQLVESGGGLVQAGGSLRLSSAASGLNFQRNTMGWSRQAPVKERELVAAISRSGGSTYYADSVKGRFTISRDNAKNTVYLQMNSLKPEDTAVYYCAALIFRHRGKDDDYWGQGTQVTVSS | high polyreactivity |
| QVQLVESGGGLVQAGGSLRLSSAASGLTFLGYTMGWYRQAPGKARELVAAINYSGGSTYYADSVKGSFTISRDNAKNTVYLQMNSLKPEDPAVYYCAARRAVSGGVRMYYWGQGTQVTVSS | high polyreactivity |
| QVQLVESGGGLVQAGGSLRLSSAASGLTFQEYAMGWYRQAPGKERELVAAISWSGGSTYYADSVKGRFTISRDNAKNTVYLQMNSLKPEDTAVYYCAAEAYEEYITGWYAYDYWGQGTQVTVSS | high polyreactivity |
| QVQLVESGGGLVQAGGSLRLSSAASGLTFRYYALGWYRQAPGKERELVAAITRRGSTYYADSVKGRFTISRDNAKNTVYLQMNSLKPEDTAVYYCATVTGFHSSPLRDLDYWGQGTQVTVSS | high polyreactivity |
| QVQLVESGGGLVQAGGSLRLSSAASGNIFYGYAIGWYRQAPGKERELVARINWSGTRTYYADSVKGRFTISRDNAKNTVYLQMNSLKPEDTAVYYCAADRYRKYYRRYYYWGQGTQVTVSS | high polyreactivity |
| QVQLVESGGGLVQAGGSLRLSSAASGNIIKYYAMGCYRQEPGKERELVAAINWSGGSTYYADSVKGRFTISRDNAKNTVYLQMNSLKPEDTAVYYCNVFSSGYYLFDYWGQGTQVTVSS | high polyreactivity |
| QVQLVESGGGLVQAGGSLRLSSAASGNTFDSKAMGWYRQAPGKERELVAGISQGDGSTYADSVKGRFTISRDNAKNTVYFQMNSLKPEDTAVYYCAADRDYIMDYWGQGTQVTVSS | high polyreactivity |
| QVQLVESGGGLVQAGGSLRLSSAASGRIFAKYAMGWYRQAPGKERELVAAISWGGGSTYYADSVKGRFTISRDNAKNTVYLQMNSLKPEDTAVYYCAARIPKQRDVRGSGMNYWGQGTQVTVSS | high polyreactivity |
| QVQLVESGGGLVQAGGSLRLSSAASGRIFAVNAMGRYRQAPGKERELVASIRWSGGSTNYADSVKGRFTISRDNAKNTVYLQMNSLKPEDTAVYFCAAVIYLWGQGTQVTVSS | high polyreactivity |
| QVQLVESGGGLVQAGGSLRLSSAASGRIFGTYAMGWYRQAPGKERELVAAITSGGRTYYADSVKGRFTISRDNAKNTVYLQMNSLKPEDNAVYYCARPSGYRKYYYWGQGTQVTVSS | high polyreactivity |
| QVQLVESGGGLVQAGGSLRLSSAASGRIFIGNAMGWYRQAPGKERELVAAISKGGGSTYYADSVKGRFTISRDNAKNTVYLQMNSLKPEDTAVYYCNKLRYPLLPPKYYYWGQGTQVTVSS | high polyreactivity |
| QVQLVESGGGLVQAGGSLRLSSAASGRIFLLNAMGWYRQAPGKERELVADISFNGGSTYYADSVKGRFTISRDNAKNSVYLQMNSLKPEDTAVYYCAVGSFGVSAYSYYYWGQGTQVTVSS | low polyreactivity |
| QVQLVESGGGLVQAGGSLRLSSAASGRIFNGNAMGWSRQSPGKERELVAAISSGGRTYYADSVKGRFTISRDNAKNTVYLQMNSLKPEDTEVYYCAARVILTTYSRNYYYWGQGTQVTVSS | high polyreactivity |
| QVQLVESGGGLVQAGGSLRLSSAASGRIFPGYAMGWYRQAPGKEREFVAAITRSGGRTYYADSVKGRFTISRDNAKNTVYVQMNSLKPEDTAVYYCNRVYEYWSEYDYWGQGTQVTVSS | high polyreactivity |
| QVQLVESGGGLVQAGGSLRLSSAASGRIFPRYGMGWYRQAPGKERELVAAISIGGSTHYADSVKGRFTISRDNAKNTVYLQMNSLKPEDTAVYYCNKDIYVYWLFRLGMGYWGQGTQVTVSS | low polyreactivity |
| QVQLVESGGGLVQAGGSLRLSSAASGRIFRPYAMGWYRPAPGKERELVAIRKSTGSTYYADSVKGRFTISRDNAKITVYLQMNSLKPEHTAVYYCAAPRDWDAGDYWGQGTQVTVSS | high polyreactivity |

| Sequence | polyreactivity (PSR sort gate) |
| --- | --- |
| QVQLVESGGGLVQAGGSLRLSSAASGRIFSRYTMGWYRQAPGKERELVAAISWIGTRTYYADSVKGRFTISRDNAKNTVYLQMNSLKPEDTAVYYCNAVFGGYYGYVSNYKFDYWGHGTQVTVSS | high polyreactivity |
| QVQLVESGGGLVQAGGSLRLSSAASGRIFWPNTIGWYRQAPGKERELVAAISWSGGSTYYADSVKGRFTISRDNAKNTVYLQMNSLIPEDTAVYYFNARYPNTRKYDYWGQGTQVTVSS | high polyreactivity |
| QVQLVESGGGLVQAGGSLRLSSAASGRIFYLYAMGWYRQAPVKERELVAGITSGGRTNYADSVKGRFTISRDNAKNTFFLQMNSLKPEDTAVYYCAAYYWGLYSGYYWRQGTQVTVSS | high polyreactivity |
| QVQLVESGGGLVQAGGSLRLSSAASGRIFYPYTIGWYRQAPGKERELVAAISSTGRTNYADSVKGRFTISRDNAKNTVYLQMNSVKPEDTAVYYCAKGFRKYSLGPPGNDYWGQGTQVTVSS | high polyreactivity |
| QVQLVESGGGLVQAGGSLRLSSAASGRIFYRNAMGWYRQAPGKEREMVAAINWSGGSTYYADSVKGRFTISRDNAKNSVYLQMNSLKPEDTAVYYCAAKPGKTPLTGDRGPYDTGYGYWGQGTQVTVSS | low polyreactivity |
| QVQLVESGGGLVQAGGSLRLSSAASGRIFYRNAMGWYRQAPGKEREMVAAIRGSGGRTYYADSVKGRFTISRDNAKYTVYLQMISLKPEDTAVYYCAAYGYYVEHPRGLSGPYDDDYWGQGTQVTVSS | low polyreactivity |
| QVQLVESGGGLVQAGGSLRLSSAASGRIFYSNAMGWYRQAPGKERELVAAITRSGGGTYYADSVKGRFTISSDNAKNTVYLLMNSLKPEDTAVYYCAAIYNWWGLGSLYYGSNYWGQGTQVTVSS | high polyreactivity |
| QVQLVESGGGLVQAGGSLRLSSAASGRILPVNTMGWYRQAPGKERELVAVITRSGGRTYYADSVKGRFTISRDNAKNTVYLQMNSLKPEDTAVYYCAADVGFRWYRYTAGPLEYDYWGQGTQVTVSS | high polyreactivity |
| QVQLVESGGGLVQAGGSLRLSSAASGRTFAVNAMGSYRQAPGKERELLAAISQRAGRTYYADSVKGRFTISRDNEKNTVYLQMNSLKPEDTAVYYCNVVGFRSRVGSRGYWGLGTQVTVSS | high polyreactivity |
| QVQLVESGGGLVQAGGSLRLSSAASGRTFIVYAMGWYRQQPGKERELVARISSGSRTSYADSVKGRFTISRDNAKNTVYLQMNSLKPEDTAVYYCAKSRVIKYEFDYWGQGTQVTVSS | low polyreactivity |
| QVQLVESGGGLVQAGGSLRLSSAASGRTFPIYAMGWYRQAPGKERELVATITLNDGNTYYADSVKGRFTISRDNAKNTVYLQMNSLKPEDTAVYYCAAKGGWPWHYHYQKNSEYDYWGQGTQVTVSS | low polyreactivity |
| QVQLVESGGGLVQAGGSLRLSSAASGRTFRYYTMGWYRQAPGKEREFVAAISSTGGTYYADSVKGRFTISRDNAKNNVYLQMNSLKPEVTAVYYCAATFIQVVVNVELYDYDYWGQGTQVTVSS | low polyreactivity |
| QVQLVESGGGLVQAGGSLRLSSAASGRTFYRYVMGWYRQAPGKERELVADITRSGGSTYYADSVKGRFTISRDNAKNTVYLQMNSLKPEDTAVYYCAAEFLSSVHVRGMDYWGQGTQVTVSS | high polyreactivity |
| QVQLVESGGGLVQAGGSLRLSSAASGRTTKVYAMGWYRQGPGKPRELVARITSSGVRRYYADSVKGRFTISRDNAKNTVYLHMNSLKPEDTAVYYCGKDARALWLHSGIYDYSGQGTQVTVSS | low polyreactivity |
| QVQLVESGGGLVQAGGSLRLSSAASGSIFARYAMGWYRPAPVKERELVAAISGRGGSTYYADSVKGRFTISRDNAKNTVYLQMNSLKPEDTAVYYCNAVGHTSIRRALDILDYWGQGPQVTVSS | high polyreactivity |
| QVQLVESGGGLVQAGGSLRLSSAASGSIFFRNAMGWYRKAPGKERELVAAISRSGGNTYYADSVKGRFTISRDNAKNTVYLQMNSLKPEDTAVYYCAKYRTLYWYDYWGQGTQVTVSS | high polyreactivity |
| QVQLVESGGGLVQAGGSLRLSSAASGSIFIPYAMGWYRQAPGKERELVAAISSSGSTYYADSVKGRFTISRDNAKNTVYFQMNSLKPEDTAVYYCAAAWHTAYWDGSDTLGGGYWGQGTQVTVSS | low polyreactivity |
| QVQLVESGGGLVQAGGSLRLSSAASGSIFTYYAMGWYRQAPGKERELLASISRHGGSTYYADSVKGRFTISRDNAKNTVYLQMNSLKPEDTAVYYCNARGWHTKVVSPRYYWGQGTQVTVSS | high polyreactivity |
| QVQLVESGGGLVQAGGSLRLSSAASGSIFVLYAMGWYRQAPGKERELVAAIDVGGGSTYYADSVKGRFTISRDNAKNTVYLQMNSLKPEDTAVYYCAAELYYTYRWYDYWGQGTQVTVSS | high polyreactivity |
| QVQLVESGGGLVQAGGSLRLSSAASGSILSYNAMGWYRQAPGKERELVASITGTGRSTRYADSVKGRFTISRDNAKNSVYLQMNSLKPEDTAVYYCATAAWWYYRIYHEFGYWGQGTQVTVSS | high polyreactivity |
| QVQLVESGGGLVQAGGSLRLSSAASGSNFWYYAMGWYRQSPGKERELVAAISAISGTTYYADSEKGRFTISRDNAKNTVYLQMNSLKPEDTAVYYCNKDASWWTDRSYDYWGQGTQVTVSS | low polyreactivity |
